Test results from paper PMC8062686, “Structural variation at the maize WUSCHEL1 locus alters stem cell organization in inflorescences”.

Biological target: T1, GST-ZmRR8 DNA-binding domain (Zea mays, UniProt Q9AV93 191-262)
T1 sequence: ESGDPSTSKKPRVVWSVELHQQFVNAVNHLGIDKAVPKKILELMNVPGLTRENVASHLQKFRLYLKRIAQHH
Test: EMSA; 1x LightShift Binding Buffer, 50 ng/uL poly(dI/dC), 2.5% glycerol, room temperature 20 min, 6% DNA retardation gel; pH and salt not given
Details: protein: recombinant; tags: GST (pET-60-DEST)

B1: m119 bp (three AGATAT to TTTTTT) (dsDNA)
DNA 1: TAATTTTTTCGTCGTATCCCATGATCCTTCGTGTGTCAACTTCACTTGTCTCTCTCCAAATTTTTTCGTCGTATCCCATGATCCTTCCTCCCCTCCAAATTTTTTCGTCGTATCACAGTA
DNA 2: TACTGTGATACGACGAAAAAATTTGGAGGGGAGGAAGGATCATGGGATACGACGAAAAAATTTGGAGAGAGACAAGTGAAGTTGACACACGAAGGATCATGGGATACGACGAAAAAATTA
- binding result: no binding
